Laboratory results as given in the supplement of paper PMC5998384.

How the values were obtained:
HeLa Kyoto [1] = assay: solubility change mitosis vs G1/S (difference of NP-40 vs SDS log2 ratios) (log2 ratio difference); higher = more soluble in mitosis
HeLa Kyoto [2] = assay: thermal stability score vs G1/S (z-score of summed log2 fold changes over temperatures); higher = more thermally stable than in G1/S
HeLa Kyoto [3] = assay: solubility in G1/S (NP-40 vs SDS abundance) (log2 ratio); higher = more soluble; conditions: cell cycle stage: G1/S
HeLa Kyoto [4] = assay: melting temperature (median over replicates), in situ; higher = more thermally stable
[5] = cell cycle stage: early G1 (4.5 h after nocodazole release)
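Wherever melting temperature (median over replicates), in situ is given: HeLa Kyoto cells synchronized by double thymidine or nocodazole block, proteins quantified by TMT10plex mass spectrometry, three independent biological replicates.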
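Wherever solubility change mitosis vs G1/S (difference of NP-40 vs SDS log2 ratios) is given: synchronized HeLa Kyoto cells (double thymidine block for G1/S, nocodazole release for mitosis), protein amounts in NP-40 versus SDS lysates quantified by mass spectrometry, three biological replicates.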
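Wherever solubility in G1/S (NP-40 vs SDS abundance) is given: HeLa Kyoto cells arrested at G1/S by double thymidine block, proteins quantified by TMT10plex mass spectrometry in mild NP-40 versus SDS extracts, three biological replicates.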
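Wherever thermal stability score vs G1/S (z-score of summed log2 fold changes over temperatures) is given: synchronized HeLa Kyoto cells, proteins quantified by TMT10plex mass spectrometry, three biological replicates, mitosis taken 0.5 h after nocodazole release, G1/S directly after double thymidine block.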

| Sequence | solubility change mitosis (log2) (HeLa Kyoto [1]) | thermal stability score (HeLa Kyoto [2]; [5]) | thermal stability score (HeLa Kyoto [2]; cell cycle stage: mitosis) | solubility in G1/S (log2) (HeLa Kyoto [3]) | melting temperature (HeLa Kyoto [4]; cell cycle stage: G1/S) | melting temperature (HeLa Kyoto [4]; cell cycle stage: mitosis) |
| --- | --- | --- | --- | --- | --- | --- |
| MLSLQYPDVYRDETAVQDYHGHKICDPYAWLEDPDSEQTKAFVEAQNKITVPFLEQCPIRGLYKERMTELYDYPKYSCHFKKGKRYFYFYNTGLQNQRVLYVQDSLEGEARVFLDPNILSDDGTVALRGYAFSEDGEYFAYGLSASGSDWVTIKFMKVDGAKELPDVLERVKFSCMAWTHDGKGMFYNSYPQQDGKSDGTETSTNLHQKLYYHVLGTDQSEDILCAEFPDEPKWMGGAELSDDGRYVLLSIREGCDPVNRLWYCDLQQESSGIAGILKWVKLIDNFEGEYDYVTNEGTVFTFKTNRQSPNYRVINIDFRDPEESKWKVLVPEHEKDVLEWIACVRSNFLVLCYLHDVKNILQLHDLTTGALLKTFPLDVGSIVGYSGQKKDTEIFYQFTSFLSPGIIYHCDLTKEELEPRVFREVTVKGIDASDYQTVQIFYPSKDGTKIPMFIVHKKGIKLDGSHPAFLYGYGGFNISITPNYSVSRLIFVRHMGGILAVANIRGGGEYGETWHKGGILANKQNCFDDFQCAAEYLIKEGYTSPKRLTINGGSNGGLLVAACANQRPDLFGCVIAQVGVMDMLKFHKYTIGHAWTTDYGCSDSKQHFEWLVKYSPLHNVKLPEADDIQYPSMLLLTADHDDRVVPLHSLKFIATLQYIVGRSRKQSNPLLIHVDTKAGHGAGKPTAKVIEEVSDMFAFIARCLNVDWIP [PREP] | -0.186 | -0.0879 | 0.619 | 0.00417 | 49.3 °C | 49.5 °C |
| MLSLRVPLAPITDPQQLQLSPLKGLSLVDKENTPPALSGTRVLASKTARRIFQEPTEPKTKAAAPGVEDEPLLRENPRRFVIFPIEYHDIWQMYKKAEASFWTAEEVDLSKDIQHWESLKPEERYFISHVLAFFAASDGIVNENLVERFSQEVQITEARCFYGFQIAMENIHSEMYSLLIDTYIKDPKEREFLFNAIETMPCVKKKADWALRWIGDKEATYGERVVAFAAVEGIFFSGSFASIFWLKKRGLMPGLTFSNELISRDEGLHCDFACLMFKHLVHKPSEERVREIIINAVRIEQEFLTEALPVKLIGMNCTLMKQYIEFVADRLMLELGFSKVFRVENPFDFMENISLEGKTNFFEKRVGEYQRMGVMSSPTENSFTLDADF [RRM2] | 0.14 | -6.63 | -8.23 | -0.239 | 56.8 °C | 56.4 °C |
| MLSQVYRCGFQPFNQHLLPWVKCTTVFRSHCIQPSVIRHVRSWSNIPFITVPLSRTHGKSFAHRSELKHAKRIVVKLGSAVVTRGDECGLALGRLASIVEQVSVLQNQGREMMLVTSGAVAFGKQRLRHEILLSQSVRQALHSGQNQLKEMAIPVLEARACAAAGQSGLMALYEAMFTQYSICAAQILVTNLDFHDEQKRRNLNGTLHELLRMNIVPIVNTNDAVVPPAEPNSDLQGVNVISVKDNDSLAARLAVEMKTDLLIVLSDVEGLFDSPPGSDDAKLIDIFYPGDQQSVTFGTKSRVGMGGMEAKVKAALWALQGGTSVVIANGTHPKVSGHVITDIVEGKKVGTFFSEVKPAGPTVEQQGEMARSGGRMLATLEPEQRAEIIHHLADLLTDQRDEILLANKKDLEEAEGRLAAPLLKRLSLSTSKLNSLAIGLRQIAASSQDSVGRVLRRTRIAKNLELEQVTVPIGVLLVIFESRPDCLPQVAALAIASGNGLLLKGGKEAAHSNRILHLLTQEALSIHGVKEAVQLVNTREEVEDLCRLDKMIDLIIPRGSSQLVRDIQKAAKGIPVMGHSEGICHMYVDSEASVDKVTRLVRDSKCEYPAACNALETLLIHRDLLRTPLFDQIIDMLRVEQVKIHAGPKFASYLTFSPSEVKSLRTEYGDLELCIEVVDNVQDAIDHIHKYGSSHTDVIVTEDENTAEFFLQHVDSACVFWNASTRFSDGYRFGLGAEVGISTSRIHARGPVGLEGLLTTKWLLRGKDHVVSDFSEHGSLKYLHENLPIPQRNTN [ALDH18A1] | -0.0142 | -0.326 | -2.31 | -0.0382 | 52.5 °C | 52.1 °C |
| MLSRAVCGTSRQLAPVLGYLGSRQKHSLPDLPYDYGALEPHINAQIMQLHHSKHHAAYVNNLNVTEEKYQEALAKGDVTAQIALQPALKFNGGGHINHSIFWTNLSPNGGGEPKGELLEAIKRDFGSFDKFKEKLTAASVGVQGSGWGWLGFNKERGHLQIAACPNQDPLQGTTGLIPLLGIDVWEHAYYLQYKNVRPDYLKAIWNVINWENVTERYMACKK [SOD2] | 0.133 | -0.479 | -0.233 | 0.614 | 58.3 °C | 56.8 °C |
| MLSSTDFTFASWELVVRVDHPNEEQQKDVTLRVSGDLHVGGVMLKLVEQINISQDWSDFALWWEQKHCWLLKTHWTLDKYGVQADAKLLFTPQHKMLRLRLPNLKMVRLRVSFSAVVFKAVSDICKILNIRRSEELSLLKPSGDYFKKKKKKDKNNKEPIIEDILNLESSPTASGSSVSPGLYSKTMTPIYDPINGTPASSTMTWFSDSPLTEQNCSILAFSQPPQSPEALADMYQPRSLVDKAKLNAGWLDSSRSLMEQGIQEDEQLLLRFKYYSFFDLNPKYDAVRINQLYEQARWAILLEEIDCTEEEMLIFAALQYHISKLSLSAETQDFAGESEVDEIEAALSNLEVTLEGGKADSLLEDITDIPKLADNLKLFRPKKLLPKAFKQYWFIFKDTSIAYFKNKELEQGEPLEKLNLRGCEVVPDVNVAGRKFGIKLLIPVADGMNEMYLRCDHENQYAQWMAACMLASKGKTMADSSYQPEVLNILSFLRMKNRNSASQVASSLENMDMNPECFVSPRCAKRHKSKQLAARILEAHQNVAQMPLVEAKLRFIQAWQSLPEFGLTYYLVRFKGSKKDDILGVSYNRLIKIDAATGIPVTTWRFTNIKQWNVNWETRQVVIEFDQNVFTAFTCLSADCKIVHEYIGGYIFLSTRSKDQNETLDEDLFHKLTGGQD [FERMT1] | -0.199 | -0.277 | -0.501 | -0.0778 | 50.2 °C | 49.8 °C |
| MLTNLRIFAMSHQTIPSVYINNICCYKIRASLKRLKPHVPLGRNCSSLPGLIGNDIKSLHSIINPPIAKIRNIGIMAHIDAGKTTTTERILYYSGYTRSLGDVDDGDTVTDFMAQERERGITIQSAAVTFDWKGYRVNLIDTPGHVDFTLEVERCLRVLDGAVAVFDASAGVEAQTLTVWRQADKHNIPRICFLNKMDKTGASFKYAVESIREKLKAKPLLLQLPIGEAKTFKGVVDVVMKEKLLWNCNSNDGKDFERKPLLEMNDPELLKETTEARNALIEQVADLDDEFADLVLEEFSENFDLLPAEKLQTAIHRVTLAQTAVPVLCGSALKNKGIQPLLDAVTMYLPSPEERNYEFLQWYKDDLCALAFKVLHDKQRGPLVFMRIYSGTIKPQLAIHNINGNCTERISRLLLPFADQHVEIPSLTAGNIALTVGLKHTATGDTIVSSKSSALAAARRAEREGEKKHRQNNEAERLLLAGVEIPEPVFFCTIEPPSLSKQPDLEHALKCLQREDPSLKVRLDPDSGQTVLCGMGELHIEIIHDRIKREYGLETYLGPLQVAYRETILNSVRATDTLDRTLGDKRHLVTVEVEARPIETSSVMPVIEFEYAESINEGLLKVSQEAIENGIHSACLQGPLLGSPIQDVAITLHSLTIHPGTSTTMISACVSRCVQKALKKADKQVLEPLMNLEVTVARDYLSPVLADLAQRRGNIQEIQTRQDNKVVIGFVPLAEIMGYSTVLRTLTSGSATFALELSTYQAMNPQDQNTLLNRRSGLT [GFM2] | -0.0596 | 1.87 | 1.26 | -0.0849 | 49.2 °C | 49.3 °C |
| MLTRVKSAVANFMGGIMAGSSGSEHGGGSCGGSDLPLRFPYGRPEFLGLSQDEVECSADHIARPILILKETRRLPWATGYAEVINAGKSTHNEDQASCEVLTVKKKAGAVTSTPNRNSSKRRSSLPNGEGLQLKENSESEGVSCHYWSLFDGHAGSGAAVVASRLLQHHITEQLQDIVDILKNSAVLPPTCLGEEPENTPANSRTLTRAASLRGGVGAPGSPSTPPTRFFTEKKIPHECLVIGALESAFKEMDLQIERERSSYNISGGCTALIVICLLGKLYVANAGDSRAIIIRNGEIIPMSSEFTPETERQRLQYLAFMQPHLLGNEFTHLEFPRRVQRKELGKKMLYRDFNMTGWAYKTIEDEDLKFPLIYGEGKKARVMATIGVTRGLGDHDLKVHDSNIYIKPFLSSAPEVRIYDLSKYDHGSDDVLILATDGLWDVLSNEEVAEAITQFLPNCDPDDPHRYTLAAQDLVMRARGVLKDRGWRISNDRLGSGDDISVYVIPLIHGNKLS [PPM1H] | 0.221 | -2.63 | -1.3 | 0.29 | 55.9 °C | 56.9 °C |
| MLWPRLAAAEWAALAWELLGASVLLIAVRWLVRRLGPRPGGLGRSGTPVPPPSAAAAPASGEMTMDALLARLKLLNPDDLREEIVKAGLKCGPITSTTRFIFEKKLAQALLEQGGRLSSFYHHEAGVTALSQDPQRILKPAEGNPTDQAGFSEDRDFGYSVGLNPPEEEAVTSKTCSVPPSDTDTYRAGATASKEPPLYYGVCPVYEDVPARNERIYVYENKKEALQAVKMIKGSRFKAFSTREDAEKFARGICDYFPSPSKTSLPLSPVKTAPLFSNDRLKDGLCLSESETVNKERANSYKNPRTQDLTAKLRKAVEKGEEDTFSDLIWSNPRYLIGSGDNPTIVQEGCRYNVMHVAAKENQASICQLTLDVLENPDFMRLMYPDDDEAMLQKRIRYVVDLYLNTPDKMGYDTPLHFACKFGNADVVNVLSSHHLIVKNSRNKYDKTPEDVICERSKNKSVELKERIREYLKGHYYVPLLRAEETSSPVIGELWSPDQTAEASHVSRYGGSPRDPVLTLRAFAGPLSPAKAEDFRKLWKTPPREKAGFLHHVKKSDPERGFERVGRELAHELGYPWVEYWEFLGCFVDLSSQEGLQRLEEYLTQQEIGKKAQQETGEREASCRDKATTSGSNSISVRAFLDEDDMSLEEIKNRQNAARNNSPPTVGAFGHTRCSAFPLEQEADLIEAAEPGGPHSSRNGLCHPLNHSRTLAGKRPKAPRGEEAHLPPVSDLTVEFDKLNLQNIGRSVSKTPDESTKTKDQILTSRINAVERDLLEPSPADQLGNGHRRTESEMSARIAKMSLSPSSPRHEDQLEVTREPARRLFLFGEEPSKLDQDVLAALECADVDPHQFPAVHRWKSAVLCYSPSDRQSWPSPAVKGRFKSQLPDLSGPHSYSPGRNSVAGSNPAKPGLGSPGRYSPVHGSQLRRMARLAELAAL [ANKLE2] | 0.146 | 2.02 | 3.19 | 0.122 | 47.5 °C | 48.1 °C |
| MLYLIGLGLGDAKDITVKGLEVVRRCSRVYLEAYTSVLTVGKEALEEFYGRKLVVADREEVEQEADNILKDADISDVAFLVVGDPFGATTHSDLVLRATKLGIPYRVIHNASIMNAVGCCGLQLYKFGETVSIVFWTDTWRPESFFDKVKKNRQNGMHTLCLLDIKVKEQSLENLIKGRKIYEPPRYMSVNQAAQQLLEIVQNQRIRGEEPAVTEETLCVGLARVGADDQKIAAGTLRQMCTVDLGEPLHSLIITGGSIHPMEMEMLSLFSIPENSSESQSINGL [DPH5] | -0.136 | 1.75 | 1.39 | 0.11 | 54.6 °C | 55.3 °C |
| MMAAGAALALALWLLMPPVEVGGAGPPPIQDGEFTFLLPAGRKQCFYQSAPANASLETEYQVIGGAGLDVDFTLESPQGVLLVSESRKADGVHTVEPTEAGDYKLCFDNSFSTISEKLVFFELIFDSLQDDEEVEGWAEAVEPEEMLDVKMEDIKESIETMRTRLERSIQMLTLLRAFEARDRNLQEGNLERVNFWSAVNVAVLLLVAVLQVCTLKRFFQDKRPVPT [TMED1] | -0.147 | 2.89 | 2.9 | 0.437 | 55.1 °C | 57.2 °C |
| MMDLRNTPAKSLDKFIEDYLLPDTCFRMQINHAIDIICGFLKERCFRGSSYPVCVSKVVKGGSSGKGTTLRGRSDADLVVFLSPLTTFQDQLNRRGEFIQEIRRQLEACQRERAFSVKFEVQAPRWGNPRALSFVLSSLQLGEGVEFDVLPAFDALGQLTGGYKPNPQIYVKLIEECTDLQKEGEFSTCFTELQRDFLKQRPTKLKSLIRLVKHWYQNCKKKLGKLPPQYALELLTVYAWERGSMKTHFNTAQGFRTVLELVINYQQLCIYWTKYYDFKNPIIEKYLRRQLTKPRPVILDPADPTGNLGGGDPKGWRQLAQEAEAWLNYPCFKNWDGSPVSSWILLAESNSADDETDDPRRYQKYGYIGTHEYPHFSHRPSTLQAASTPQAEEDWTCTIL [OAS1] | -0.0843 | -0.255 | 0.00402 | 0.134 | 50.5 °C | 49.5 °C |
